The DeepSol protein solubility set

test: soluble on expression in E. coli; label from the status in PepcDB or PDB records

Sequence | soluble on expression in E. coli
MGSDKIHHHHHHILDSTIYLIGTAHFSKESQEDVSNTIRAVQPDFVMLELCPSRISIISMDEARLLSEAKDLNSQKIIQTMKQNGAIQGILHVLLLSMSAHVTRELSMAPGGEFRAAHRAAVATENCRVVLGDRPIQVTLQRALASLSIWQKIRFFFHVAFSHREKITAEEVERCKQRDLLEQLLAEMADDFPQLSQIFVEERDAYMTHALHMLVHRNSVEKRAQWLRGTTGQQFQPLTVVAVV | not soluble
PEFMVTTEPALADLQEQLYNGNEKSQLAAMSTLSTAGTEGYHLLQEFLKDSATFSPPPAPWIRGQAYRLLFHSPEASVQAFLQQHYPQGVIPLRSDRGVDYQELAKLFVAEKFEAADRLTTQKLCELAGPLAQKRRWLYFTEVEQLPIPDLQTIDQLWLAFSLGRFGYSVQRQLWLGCGQNWDRLWEKIGWRQGKRWPRYPNEFIWDLSAPRGHLPLTNQLRGVQVLNALLNHPAWTA | soluble
MEDKPTILIMGGSLGLGNIEDIVEMVCHICDESYQIIVVTGKNKTLKKSLEERNFGRKVVVFGFISFIDKLMAISDILITKPGGLTCAEALSCKLPMILISPIPGQEERNTFYLINNGAAAYVKNIESFDIVFNQIINNPQRLEHMKLACSFLAKPLEHHHHHH | not soluble
MAIRLYKLAVALGVFIVSAPAFSHGHHSHGKPLTEVEQKAANGVFDDANVQNRTLSDWDGVWQSVYPLLQSGKLDPVFQKKADADKTKTFAEIKDYYHKGYATDIEMIGIEDGIVEFHRNNETTSCKYDYDGYKILTYKSGKKGVRYLFECKDPESKAPKYIQFSDHIIAPRKSSHFHIFMGNDSQQSLLNEMENWPTYYPYQLSSEEVVEEMMSH | soluble
MSQIEFKNVSKVYPNGHVGLKNINLNIEKGEFAVIVGLSGAGKSTLLRSVNRLHDITSGEIFIQGKSITKAHGKALLEMRRNIGMIFQHFNLVKRSSVLRNVLSGRVGYHPTWKMVLGLFPKEDKIKAMDALERVNILDKYNQRSDELSGGQQQRISIARALCQESEIILADEPVASLDPLTTKQVMDDLRKINQELGITILINLHFVDLAKEYGTRIIGLRDGEVVYDGPASEATDDVFSEIYGRTIKEDEKLGVN | not soluble
QNFLNDQFVIDSIVSAINPQKGQAMVEIGPGLAALTEPVGERLDQLTVIELDRDLAARLQTHPFLGPKLTIYQQDAMTFNFGELAEKMGQPLRVFGNLPYNISTPLMFHLFSYTDAIADMHFMLQKEVVNRLVAGPNSKAYGRLSVMAQYYCNVIPVLEVPPSAFTPPPKVDSAVVRLVPHATMPHPVKDVRVLSRITTEAFNQRRKTIRNSLGNLFSVEVLTGMGIDPAMRAENISVAQYCQMANYLAENA | soluble
MGSDKIHHHHHHMLGINRKLEQLESDGTIIRVGLVGAGQMGRGMVSQIESMKGMRVVVTADIVLENVKLAYERAGVPKDEVIETDEISKAADAIQAGKVVATGDAELVTALSEVDVVVDATGIPNIGAKIAWDAILNKKHIVMLNVEADVTVGPLLKQMADACGVVYTGSAGDEPGAVMELYDFADALGFEVVALGKGKNNPLNVEANPQTAAEEAKRKGASPKMLASFQDGTKTMVEMTAVANATGFLPDKPGMNGFVGTVEELPAIFRRKEEGGQVENERIVEYINGVAPGVFAIVKSDKEEVNHEMTYLSMGEGPNYVLYRPYHLTSLETPISIARAHLYHEATIAPWQGLQAETVAVAKKDLAAGEFLDSIGGFTVYGTILTVTDAKEKGALPIGLVDAHVQVKRPIKKGEIITYDDVEQKKESTIWRLRRIQDETLVGKRELEAKV | not soluble
MNYRELMQKKNVRPYVLMARFGLEKENQRSTREGLLATTEHPTVFGNRSYHPYIQTDFSETQLELITPVANSGTEMLRFLDAIHDVARRSIPEDEMLWPLSMPPQLPTKDEEIKIAKLDQYDAVLYRRYLAKEYGKRKQMVSGIHFNFEYDQALIQQLYDEQSEVTDCKQFKTKVYMKVARNFLRYRWLITYLFGASPVSEDRYFRVYDDQPQEPVRSIRNSTYGYRNHDNVKVSYASLERYLEDIHRMVENGLLSEEKEFYAPVRLRGGKQMSDLPKTGIRYIELRNLDLNPFSRLGIVEDTVDFLHYFMLYLLWTDEKEEADEWVKTGDIFNEQVALGHPHETIKLIAEGDRIFSEMIDMLDALGIRKGKEVVGKYYQQLRNPQDTVSGKMWTIIQENSNSELGNIFGNQYQSMAFERPYQLAGFREMELSTQIFLFDAIQKGLEIEILDEQEQFLKLQHGEHIEYVKNANMTSKDNYVVPLIMENKTVTKKILSAAGFHVPGGEEFSSFIEAQEAHLRYANKAFVVKPKSTNYGLGITIFKEGASLEDFTEALRIAFKEDTAVLIEEFLPGTEYRFFVLDNDVKAIMLRVPANVTGDGKHTVEELVAAKNSDPLRGTNHRAPLELIQLNDLEKLMLKEQGLTIYSVPEKEQIVYLRENSNVSTGGDSIDMTDVIDDSYKQIAIEAVAALGAKICGIDLIIPDKDVKGTRDSLTYGIIEANFNPAMHMHVYPYAGQGRRLTMDVLKLLYPEVVQ | not soluble
MGSDKIHHHHHHMSRTVVISQPTYLPWLGYFELIAKSDVFVFLDNVQCVKQSWHNRNRLKGNDDQLIWLTVPVKAHPLDTPLSKIQILNNPSVWRRKHLGTIQTCLGSAVYFHTIFPFIQEFINYEYEYLVDLNISLIKLFADLLGLSPNFVKASDLNPQGRRTEMLVNLCQQLDADYYYSPMGSKVYIEEEKHLFIEEDIKLNYQIWEHPCYSQRGKIFVSHLSILDTLMNIGLEATRSLIIPNKLKDI | not soluble
MGHHHHHHSHMQQQETNLLANLTTNDARDNSKDFQNSKVGAAATSRDEGCNCPIIGEIVISCYWLFEIPPLISE | soluble
GPTSPGPALTDWARVREELASTGPPVVAMPVVIKTEGPAWTPLEPKLITRLADTVRTKGLRSPITMAEVEALMSSPLLPHDVTNLMRVILGPAPYALWMDAWGVQLQTVIAAATRDPRHPANGQGRGERTNLNRLKGLADGMVGNPQGQAALLRPGELVAITASALQAFREVARLA | soluble
MIPVVYSNLCPVCGGDLESKEIEKHVCFRKKRSLCLFPEDFLLKEFVEFFRKCVGEPRAIQKMWAKRILRKESFAATAPTGVGKTSFGLAMSLFLALKGKRCYVIFPTSLLVIQAAETIRKYAEKAGVGTENLIGYYHGRIPKREKENFMQNLRNFKIVITTTQFLSKHYRELGHFDFIFVDDVDAILKASKNVDKLLHLLGFHYDLKTKSWVGEARGCLMVSTATAKKGKKAELFRQLLNFDIGSSRITVRNVEDVAVNDESISTLSSILEKLGTGGIIYARTGEEAEEIYESLKNKFRIGIVTATKKGDYEKFVEGEIDHLIGTAHYYGTLVRGLDLPERIRFAVFVGCPSFRVTIEDIDSLSPQMVKLLAYLYRNVDEIERLLPAVERHIDEVREILKKVMGKERPQAKDVVVREGEVIFPDLRTYIQGSGRTSRLFAGGLTKGASFLLEDDSELLSAFIERAKLYDIEFKSIDEVDFEKLSRELDESRDRYRRRQEFDLIKPALFIVESPTKARQISRFFGKPSVKVLDGAVVYEIPMQKYVLMVTASIGHVVDLITNRGFHGVLVNGRFVPVYASIKRCRDCGYQFTEDRESCPKCGSENVDNSRSRIEALRKLAHDAEFVIVGTDPDTEGEKIAWDLKNLLSGCGAVKRAEFHEVTRRAILEALESLRDVDENLVKAQVVRRIEDRWIGFVLSQKLWERFNNRNLSAGRAQTLVLGWIIDRFQESRERRKIAIVRDFDLVLEHDEEEFDLTIKLVEEREELRTPLPPYTTETMLSDANRILKFSVKQTMQIAQELFENGLITYHRTDSTRVSDVGQRIAKEYLGDDFVGREWGESGAHECIRPTRPLTRDDVQRLIQEGVLVVEGLRWEHFALYDLIFRRFMASQCRPFKVVVKKYSIEFDGKTAEEERIVRAEGRAYELYRAVWVKNELPTGTFRVKAEVKSVPKVLPFTQSEIIQMMKERGIGRPSTYATIVDRLFMRNYVVEKYGRMIPTKLGIDVFRFLVRRYAKFVSEDRTRDLESRMDAIERGELDYLKALEDMYAEIKSID | soluble
MTDANYPIYGDIDGPIIMIGFGSIGRGTLPLIERHFNFDRTRLVVIDPREDIAAFLAERNIRHVQTHLTKENYKDVLKPLLKGVQGKGFCVNLSVDAASVDLMRICRKHGMLYIDTVVEPWPGFYFDADADNRARTNYSLRETMLKERARKPGGTTAVSTCGANPGMVSWFVKQALVNLAKDTGLDIEEPQSHDREGWAKLMQQLGVKGVHVAERDTQRAKEPKPFGAFWNTWSVEGFIAEGFQPAELGWGTHENWMPKNAKKQKKGSKAAIYLDQPGANTRVRTWCPGLGAQYGFLVTHNEAISISDYFTVRNDDGDVTYRPTCHYAYHPCNDAILSLHELFGNGGNPQPIQHVLGEDELVDGADELGVLLYGHDRNAYWYGSRLSLEEARSLAPSQNATGLQVSSAVLAGMAWAIENPEAGIVEADEMDYRRCLEVQRPYLGPVEGHYTDWTPLDGRPGLFPDNIDMSDPWQFRNILVRAAALEHHHHHH | soluble
MSLIITDDHMHLYNHLKLKALEQFRDAGGTHVFLVNLLCHHYGIRPTSGKDFREVFERHLSLVEKANKIVKAYAVLGVHPAEITVIGDRIGHEKAAEMMKEALEIAGKYVEEGKAVALKSGRPHYPVSRHVWQLSNDVLRHAFEVAKDVGCAIQLHTESYTKEGMLEIAKMADEVGLKREKVVKHFSPPLIKEFEEIGIFPSVLAGNNNVLKAAEQGNRFTVETDYIDDRKRPGAVLGPKTVPRKVKELIELGYEDIAYKICVENVEKVYGVELEEEGHHHHHH | soluble
MIKILAACGAGVNSSHQIKSALEEELSNRGYDVHCDAVMVKDVNEDLMKGYDIFTPIAATDLGFEPGIPVIEAGPILFRIPAMSVPVFDNIRLPAKQNMV | not soluble
SACSRDTPEAPQSTSATSSAAPSTTSASTTAPSSASASSITQTSKVSSQAEAPTSVPPMLDSKHKNVQRAFEQFGALAPESLFAQFDTCDANGVQNSMACSGHDVGQFQFFKSDAKAASTTQLLTELRSSRVIEDTGRR | not soluble
MGSDKIHHHHHHMAHAHQKSDPHTVDFQVDPVVLELGQRFVDAGYELSLVGGPVRDLFLGRRSPDLDFTTDATPDQTLALIRKWADNFWEIGKAFGTIGMRKSGFQIEITTYRAEAYDPESRKPMVAFGSSLTDDLLRRDFTINAMALRLPSMELIDPFGGVRDLHASVLATPGAPETSFSDDPLRMMRAARFAAQLGVAVRGDVKHAMSQMAERISIISAERVREELVKLICGAHPRVGIDLLVDTGLAEFVLPEVSALRLEADEHHRHKDVYQHSLQVLEQAASLETDSDGAVPGPDFVLRFAALMHDVGKPATRRFEPGGAVSFRHHDMVGSKLTKKRMKALRFDNDTIKAVARLVELHMRFYGYGEAGWSDSAVRRYVTDAGPLLERLHRLTRSDVTTRNQRKADRLSFAYDDLEARIAALREQESLEAVRPDLDGGQIMALLGLKPGPVVGKAYKFLLEQRMEHGPLDPVVAEARLREWWADQPEAAEHQPAAGVELSTTEES | not soluble
VVMHPGFGAAALTGATGAAAAAAAAPTPQASPLGGRGTGASAEPATSAHSHGGGGGFGNVVSGTPMETTVSLPPQVSSHAGGRGASGSTDSSAEASTDHKRARTNNPGAGGARAAQAAALPSLDAVTSQQAAAAAGMAPAAGTLGAVPPAYPAVAVAPAAEVNGAMPYVDALTEQLRAVRLLQPTPPSSASSAPVRASAAAMADVTENVAVKAKGKKKGAAAAAAAQPPPPPLLPPAPRTEMDRRAALSGAAGAFMAACDEAVRELLLAMNFSDHDAEAIITGAAPPQLEHAASGVVSLVLRLKSSVLSHYIKHLNNAAARSQAAAASTAAVDGNAEDAADKHGAKATSAAKAPPAAGGGAGDAADQQLSTGEACLVQLQLYGGVGDALLQLLRSKLRGSACQLWALAHIVHPHPSRSEKESLAAYTGKSTKQVTDWFTNWRARHW | not soluble
